PMC6764942, “TFF3 interacts with LINGO2 to regulate EGFR activation for protection against colitis and gastrointestinal helminths” (Nature Communications, 2019)
Where no end group is shown, it is not given here.

Molecular target: T1, LINGO2-GFP on HEK293 transfectants (mouse, UniProt Q3URE9 28-606)
T1 construct: LINGO2, mouse, from pCMV3-mLINGO2-GFP; also called GFP-LINGO2; pCMV3-mLINGO2-GFP; source: HEK293, transfected, on cells
T1 sequence (looked up): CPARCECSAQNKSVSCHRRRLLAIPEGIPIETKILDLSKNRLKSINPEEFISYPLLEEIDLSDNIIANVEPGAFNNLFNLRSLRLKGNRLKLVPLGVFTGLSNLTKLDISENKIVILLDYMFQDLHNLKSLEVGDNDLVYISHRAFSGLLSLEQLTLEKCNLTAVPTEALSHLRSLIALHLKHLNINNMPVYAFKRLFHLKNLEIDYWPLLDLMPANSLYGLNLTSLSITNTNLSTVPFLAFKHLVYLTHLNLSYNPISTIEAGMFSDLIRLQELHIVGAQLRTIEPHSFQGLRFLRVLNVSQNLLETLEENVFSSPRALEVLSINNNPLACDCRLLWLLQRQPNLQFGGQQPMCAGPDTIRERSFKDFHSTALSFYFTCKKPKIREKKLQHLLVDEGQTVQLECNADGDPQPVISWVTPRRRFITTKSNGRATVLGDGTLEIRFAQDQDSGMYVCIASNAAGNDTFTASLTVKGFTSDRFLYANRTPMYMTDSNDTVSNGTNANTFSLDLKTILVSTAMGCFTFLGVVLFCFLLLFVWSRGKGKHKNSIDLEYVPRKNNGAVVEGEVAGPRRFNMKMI
Assay: flow cytometry on cells; HEK293 transfected with GFP-labeled receptors, 24 h later incubated with PBS or 3 ug Alexa Fluor 647 labeled soluble ligand for 16 h at 4 C; double positive (GFP and AF-647) cells counted
Conditions: one partner purified

fold increase in double-positive cells compared to PBS or IL-2-647: 12 fold
B1: TFF3-647 (murine recombinant TFF3 labeled with Alexa Fluor 647) (ligand, mouse, UniProt Q62395 23-81, looked up)
chain: ADYVGLSPSQCMVPANVRVDCGYPSVTSEQCNNRGCCFDSSIPNVPWCFKPLQETECTF
modifications: ends and bridges not checked; also: Alexa Fluor 647 label, site not given here
notes: Trefoil factor 3, mouse, recombinant (Peprotech); A commercial recombinant TFF3 is probably the mature protein (surmise); source: bought: Peprotech
